The values that follow come from publication PMC5004290, “Mapping an epitope in EBNA‐1 that is recognized by monoclonal antibodies to EBNA‐1 that cross‐react with dsDNA” (Immunity, Inflammation and Disease, 2016).

No end group written: not given here. *: point of attachment. Biotin = O=C1N[C@H]2[C@H](CS[C@H]2CCCCC(=O)*)N1

Test [1] deals with IgM monoclonal antibody 16D2 to EBNA-1 (mouse). Briefly: ELISA; peptide inhibition ELISA; 16D2 (5 μg/ml) incubated with 0.1 μg/ml to 1 mg/ml of peptide, then transferred to EBNA-1 coated plates, 1 h at 37°C.
Test [2] shares this target. Briefly: ELISA; peptide inhibition ELISA; 16D2 (5 μg/ml) pre-incubated 1 h at 37°C with 0.1 to 100 μg/ml of peptide, then transferred to dsDNA coated plates, 2 h at 37°C.
The target in test [3] is T1, Peptide GL-15 of EBNA-1 (aa 552-566) (Epstein-Barr virus (strain B95-8) …).
T1 construct: EBNA-1 of Epstein Barr virus, aa 552-566; it is surmised from the streptavidin format of the peptide ELISA; source: synthetic peptide
T1 chain: GPLRESIVCYFMVFL
Briefly: ELISA; anti-peptide ELISA; biotinylated peptide (100 μg/ml), or mole equivalents of biotinylated PFM-15 and biotinylated EBNA-1, on streptavidin coated plates; 3D4 at 5 μg/ml in PBS, 0.1% BSA, 1 h at 37°C. Conditions: both partners purified.

IgM monoclonal antibody 16D2 to EBNA-1 (mouse), sequence (heavy, as listed by the source): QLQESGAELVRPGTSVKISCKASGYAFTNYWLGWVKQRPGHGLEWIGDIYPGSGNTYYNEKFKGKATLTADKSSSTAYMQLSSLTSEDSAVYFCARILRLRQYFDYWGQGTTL

B1: Peptide PFM-15 of EBNA-1 (aa 549-563) (peptide)
peptide: Biotin-PQPGPLRESIVCYFM
Take B1: the percent inhibition of binding to EBNA-1 at 100 μg/ml of peptide in test [1] amounted to 70%. In test [2], this molecule showed a percent inhibition of binding to dsDNA at 100 μg/ml of peptide of 60%.

B2: IgG monoclonal antibody 3D4 to EBNA-1 (antibody, V domains shown)
VH: LQESGGGLVKPGGSLKLSCAASGFAFSSYDMSWVRQTPEKRLEWVATISSGGSYIYYPDSVKGRFTISRDNARNTLYLQMSSLRSEDTALYYCARPPPFYFDYWGQGTTLTVSS
VL: TQSPLSLPVSLGEQASISCRSSQSLVHSNGNTYLHWYLQKPGQSPKLLIYKVSNRFSGVPDRFSGSGSGTDFTLKISRLEAEDLGFYFCSQTTHVPWTFGGGTK
notes: gamma heavy chain, germline VH7183.14, JH2, 3 mutations; kappa light chain, germline bb1, JK1, 5 mutations; Mouse IgG1 kappa; also called MAb 3D4; source: hybridoma from an EBNA-1 injected mouse; IgG MAbs purified on protein G sepharose columns
B2: the binding result in test [3] was “binds”.
